These are literature values, as cited in PMC3114466.

Values joined by “and” are separate entries in the source; they are usually repeats but may differ in a detail not shown here. Identical values can stand only once.

In the data set the test system is His. Particulars: free model compound in solution (inferred).

Broadly, the pKa is the negative logarithm of the acid dissociation constant. For the substance “Capped histidine model compound (acetyl-histidine-methylamide) (synthetic)”, the pKa was 6.42 and 6.92 and 6.53.
